Measured values taken from US20250361274A1, “PEPTIDE AND PEPTIDE-CONTAINING AGENT” (PEPTIDREAM INC., priority 2022, published 2025).
Numbered stars: 1 amine (or outer) side, 2 acyl side, 3 side chain; on linkers, the order of the positions; unused ones are H or OH. Bridge positions count the residues as written; N and C are the ends. Square brackets hold non-standard residues; d marks the D form. Ends that are not written are not given here. Peptide text beside a SMILES is read from it. KCOpipzaa = N6-(4-(carboxymethyl)piperazine-1-carbonyl)-L-lysine, O=C(NCCCC[C@H](N[*:1])C(=O)[*:2])N1CCN(CC(=O)[*:3])CC1; 3Pal(6-Ph) = N[C@@H](Cc1ccc(-c2ccccc2)nc1)C(=O)O; Phe(4-COOH) = N[C@@H](Cc1ccc(C(=O)O)cc1)C(=O)O; NMePhe(4-Me) = CN[C@@H](Cc1ccc(C)cc1)C(=O)O; Bip = N[C@@H](Cc1ccc(-c2ccccc2)cc1)C(=O)O; Phe(4-F) = N[C@@H](Cc1ccc(F)cc1)C(=O)O; Ala(4-THP) = N[C@@H](CC1CCOCC1)C(=O)O; cisHyp = O=C(O)[C@@H]1C[C@H](O)CN1; NMeF = CN[C@@H](Cc1ccccc1)C(=O)O; 4Pal = N[C@@H](Cc1ccncc1)C(=O)O; Aad = N[C@@H](CCCC(=O)O)C(=O)O; Cha = N[C@@H](CC1CCCCC1)C(=O)O; βAla = NCCC(=O)O

How the values were obtained:
BMP4 = molecular target: T1, BMP4 (Homo sapiens, UniProt P12644); assay: BMP4 signal transduction inhibitory activity: SMAD1 phosphorylation by BMP4 stimulus, AlphaLISA SureFire, A549 cells; type: cell-based; conditions: A549 cells
T1 sequence (P12644 293-408): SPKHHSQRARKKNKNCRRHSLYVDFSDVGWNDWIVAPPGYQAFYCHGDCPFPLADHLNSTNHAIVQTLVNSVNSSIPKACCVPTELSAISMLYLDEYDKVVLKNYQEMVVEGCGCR
Protocol: In the present Example, a BMP4 signal transduction inhibitory activity of each peptide consisting of an amino acid sequence set forth in any of SEQ ID NOs: 5 to 240 and 243 to 421 synthesized in Example 10 was verified by phosphorylation of SMAD1 caused by BMP4 stimulus. A549 cells were cultured in MEM (Thermo Fisher Scientific) containing 10% FBS (Thermo Fisher Scientific), 1×Non-essential amino acids (Thermo Fisher Scientific), and 50 μg/mL Gentamicin. After TrypLE (Gibco) was used to peel the cells, seeding was performed in a 96-well plate for adhesion cells so that the number of cells would be 20,000 per well, followed by culturing for 48 hours. After the cells were cultured as described above, the culture medium was replaced with a peptide solution or recombinant Human Noggin Protein (R&D) solution as a positive control diluted to various concentrations in a nutrition-starved culture medium containing 0.1% BSA (Sigma) instead of FBS Thirty minutes after culturing, […], to stimulate it for 60 minutes. The culture medium was removed and the cells were lysed with Lysis Buffer provided with AlphaLISA (registered trademark) SureFire (registered trademark) Ultra SMAD1 (p-[…]/465) Assay kit (PerkinElmer). According to the protocol of the kit, a signal was detected using SpectraMax (registered trademark) Paradigm (registered trademark) multimode microplate reader (Molecular Devices). The obtained signal was analysed using GraphPad Prism (GraphPad Software). The % inhibition was calculated by considering non-stimulation as 100% inhibition and BMP stimulation only as 0% inhibition. Regarding SEQ ID NOs: 5 to 187, the concentrations of the peptides synthesized in the same manner as in Example 2 (shown as 2 in the row of Synthesis) were 0.02 nM, 0.2 nM, and 2 nM, and the concentrations of the peptides synthesized in the same manner as in Example 1 (shown as 1 in the row of Synthesis) were 0.2 nM, 2 nM, and 20 nM. The evaluation results were based on the results of evaluation using the peptides synthesized in the same manner as in Example 2. […] Regarding SEQ ID NOs: 243 to 321, the test was performed at the concentrations described in Table 6. […] Regarding SEQ ID NOs: 322 to 421, the test was performed at the concentrations described in Table 7. […] The evaluation tests of the signal transduction inhibitory activities of SEQ ID NOs: 87, 177, and 181 are as follows. Specifically, the inhibitory activity of BMP4 was evaluated in the same manner as in Example 11 that used A549 cells. Eight concentrations of the peptides were used at a common ratio of 1/3 starting from 2 nM. The inhibitory activity of BMP7 was evaluated in the same manner as in Example 12. Eight concentrations of the peptides were used at a common ratio of 1/3 starting from 100 nM. Note that recombinant Human Noggin Protein (R&D) as a positive control was used at the same concentration as that of the peptide. […] The inhibitory activity of BMP7 was evaluated using eight concentrations of the peptides at a common ratio of 1/3 starting from 1,000 nM in the same manner as in Example 12.

BMP7 = molecular target: T2, BMP7 (Homo sapiens, UniProt P18075); assay: BMP7 signal transduction inhibitory activity: SMAD1 phosphorylation by BMP7 stimulus, A549 cells; type: cell-based; conditions: for aLISA BMP7: A549 cells, 10 nM BMP7, peptides of Synthesis 2, peptide 1, 10, 100 nM
T2 sequence (P18075 293-431): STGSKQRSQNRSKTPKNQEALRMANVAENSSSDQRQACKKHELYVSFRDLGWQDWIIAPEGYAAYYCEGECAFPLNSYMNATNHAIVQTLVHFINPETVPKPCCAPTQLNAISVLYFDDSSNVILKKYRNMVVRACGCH
Protocol: In the present Example, BMP7 signal transduction inhibitory activity of each peptide consisting of an amino acid sequence set forth in any of SEQ ID NOs: 5 to 240 and 243 to 421 synthesized in Example 10 was verified by phosphorylation of SMAD1 caused by BMP7 stimulus. The evaluation was performed using 10 nM of BMP7 instead of BMP 4. Regarding SEQ ID NOs: 5 to 240, the concentrations of the peptides synthesized in the same manner as in Example 2 (shown as 2 in the row of Synthesis) were 1 nM, 10 nM, and 100 nM, and the concentrations of the peptides synthesized in the same manner as in Example 1 (shown as 1 in the row of Synthesis) were 10 nM, 100 nM, and 1,000 nM, similarly with Example 11. […] Regarding SEQ ID NOs: 243 to 273 and SEQ ID NOs: 299 to 321, the test was performed at the concentrations (10, 100, 1,000 nM) described in Table 6. […] Regarding SEQ ID NOs: 274 to 298, the test was performed at the concentrations (100, 300, 1,000 nM) described in Table 6. […] Regarding SEQ ID NOs: 322 to 370 and SEQ ID NOs: 393 to 421, the test was performed at the concentrations (1, 10, 100 nM). […] Regarding SEQ ID NOs: 371 to 391, the test was performed at the concentrations (10, 30, 90 nM). […] The evaluation tests of the signal transduction inhibitory activities of SEQ ID NOs: 87, 177, and 181 are as follows. Specifically, the inhibitory activity of BMP4 was evaluated in the same manner as in Example 11 that used A549 cells. Eight concentrations of the peptides were used at a common ratio of 1/3 starting from 2 nM. The inhibitory activity of BMP7 was evaluated in the same manner as in Example 12. Eight concentrations of the peptides were used at a common ratio of 1/3 starting from 100 nM. Note that recombinant Human Noggin Protein (R&D) as a positive control was used at the same concentration as that of the peptide. […] The inhibitory activity of BMP7 was evaluated using eight concentrations of the peptides at a common ratio of 1/3 starting from 1,000 nM in the same manner as in Example 12.

[1] = SMAD1 phosphorylation, peptides of Synthesis 2, peptide 0.02, 0.2, 2 nM

| IC50 (BMP7; Table 2-2, 277 from 1,000 nM (1/3), 417 from 300 nM (1/4)) | Compound | aLISA BMP4 (BMP4; [1]) | aLISA BMP7 (BMP7) | aLISA BMP4 (BMP4; class of inhibition of SMAD1 phosphorylation by BMP4 stimulus, AlphaLISA) |
| --- | --- | --- | --- | --- |
|  | 11 (ARVYVDRFKYPFYFFSCG; not fully specified; MOD_RES 8 F represents (S)-3-(1,1'-Biphenyl-4-yl)-2-aminopropanoic acid(Bph); MOD_RES 12 F represents (S)-3-(1,1'-Biphenyl-4-yl)-2-aminopropanoic acid(Bph); MOD_RES 14 F represents (S)-4-(2-amino-2-carboxyethyl)benzoic acid(F4COO); MOD_RES 15 F represents (S)-4-(2-amino-2-carboxyethyl)benzoic acid(F4COO)) [compound 11] | A (showed an inhibitory activity of 50% or more in a zone to which the peptide was added to in an amount of 0.2 nM) | C (showed less than 50% of inhibitory activity in 10 nM-addition zone and showed 50% or more of inhibitory activity in 100 nM-addition zone) |  |
|  | 17 ({CH2CO}-ARVYVDR[Bip]GYP[Bip]Y[Phe(4-COOH)][Phe(4-COOH)]SCG-NH2; thioether N-17; not fully specified) [compound 17] | A (showed an inhibitory activity of 50% or more in a zone to which the peptide was added to in an amount of 0.2 nM) | C (showed less than 50% of inhibitory activity in 10 nM-addition zone and showed 50% or more of inhibitory activity in 100 nM-addition zone) |  |
|  | 18 ({CH2CO}-ARVYVDR[Bip]SYP[Bip]Y[Phe(4-COOH)][Phe(4-COOH)]SCG-NH2; thioether N-17; not fully specified) [compound 18] | A (showed an inhibitory activity of 50% or more in a zone to which the peptide was added to in an amount of 0.2 nM) | C (showed less than 50% of inhibitory activity in 10 nM-addition zone and showed 50% or more of inhibitory activity in 100 nM-addition zone) |  |
|  | 22 ({CH2CO}-ARVYVKR[Bip][KCOpipzaa]YP[Bip]Y[Phe(4-COOH)][Phe(4-COOH)]SCG-NH2; thioether N-17; not fully specified) [compound 22] | A (showed an inhibitory activity of 50% or more in a zone to which the peptide was added to in an amount of 0.2 nM) | C (showed less than 50% of inhibitory activity in 10 nM-addition zone and showed 50% or more of inhibitory activity in 100 nM-addition zone) |  |
|  | 24 ({CH2CO}-A[KCOpipzaa]VYV[KCOpipzaa]R[Bip]PYP[Bip]Y[Phe(4-COOH)][Phe(4-COOH)]SCG-NH2; thioether N-17; not fully specified) [compound 24] | A (showed an inhibitory activity of 50% or more in a zone to which the peptide was added to in an amount of 0.2 nM) | C (showed less than 50% of inhibitory activity in 10 nM-addition zone and showed 50% or more of inhibitory activity in 100 nM-addition zone) |  |
|  | 29 ({CH2CO}-ARVYVDR[3Pal(6-Ph)]PYP[Bip]Y[Phe(4-COOH)][Phe(4-COOH)]SCG-NH2; thioether N-17; not fully specified) [compound 29] | A (showed an inhibitory activity of 50% or more in a zone to which the peptide was added to in an amount of 0.2 nM) | ND (the inhibitory activity was less than 30% at the maximum concentration evaluated) |  |
|  | 32 (ARVYVDR[3Pal(6-Ph)]PYP[3Pal(6-Ph)]Y[Phe(4-COOH)][Phe(4-COOH)]SCG-NH2; not fully specified (N-terminus, bridges)) [compound 32] | A (showed an inhibitory activity of 50% or more in a zone to which the peptide was added to in an amount of 0.2 nM) | ND (the inhibitory activity was less than 30% at the maximum concentration evaluated) |  |
|  | 33 ({CH2CO}-ARVYVDR[3Pal(6-Ph)]PYP[3Pal(6-Ph)][4Pal][Phe(4-COOH)][Phe(4-COOH)]SCG-NH2; thioether N-17; not fully specified) [compound 33] | C (showed an inhibitory activity of less than 50% in 0.2 nM-addition zone and showed an inhibitory activity of 50% or more in 2 nM-addition zone were defined as B or C) | ND (the inhibitory activity was less than 30% at the maximum concentration evaluated) |  |
|  | 34 ({CH2CO}-AKVYVDH[Bip]PYP[Bip]Y[Phe(4-COOH)][Phe(4-COOH)]SCG-NH2; thioether N-17; not fully specified) [compound 34] | A (showed an inhibitory activity of 50% or more in a zone to which the peptide was added to in an amount of 0.2 nM) | C (showed less than 50% of inhibitory activity in 10 nM-addition zone and showed 50% or more of inhibitory activity in 100 nM-addition zone) |  |
|  | 35 ({CH2CO}-AKVYVDK[Bip]PYP[Bip]Y[Phe(4-COOH)][Phe(4-COOH)]SCG-NH2; thioether N-17; not fully specified) [compound 35] | A (showed an inhibitory activity of 50% or more in a zone to which the peptide was added to in an amount of 0.2 nM) | ND (the inhibitory activity was less than 30% at the maximum concentration evaluated) |  |
|  | 187 ({CH2CO}-E[KCOpipzaa]V[Phe(4-COOH)][Ala(4-THP)]DR[Bip]PYP[Bip][Phe(4-F)][Phe(4-COOH)][4Pal]SC[βAla][dE]; thioether N-17) [compound 187] |  |  | C (showed an inhibitory activity of less than 50% in 0.2 nM-addition zone and showed an inhibitory activity of 50% or more in 2 nM-addition zone were defined as B or C) |
| 15.6 nM | Cc1ccc(C[C@H]2C(=O)N[C@@H](CC(C)C)C(=O)N3C[C@@H](O)C[C@H]3C(=O)N[C@H](C(=O)NCCC(=O)N[C@H](CCC(=O)O)C(=O)O)CSCC(=O)N[C@@H](Cc3ccc(F)cc3)C(=O)NCC(=O)N(C)[C@@H](Cc3ccccc3)C(=O)NCC(=O)N[C@@H](Cc3ccc(-c4ccccc4)nc3)C(=O)NCC(=O)N[C@@H](CC(=O)O)C(=O)N[C@@H](CCC(=O)O)C(=O)N[C@@H](CC3CCCCC3)C(=O)N[C@@H](CCCC(=O)O)C(=O)N2C)cc1 [Peptide 417] ({CH2CO}-[Phe(4-F)]G[NMeF]G[3Pal(6-Ph)]GDE[Cha][Aad][NMePhe(4-Me)]L[cisHyp]C[βAla][dE]-OH; thioether N-14) |  |  |  |
